Measured values: patent publication US20100130424A1 (Janssen / Centocor, published 2010)
No end group written: not given here.

Target: T1, human CRH receptor type 2 (human, UniProt Q13324 1-411)
T1 sequence (looked up): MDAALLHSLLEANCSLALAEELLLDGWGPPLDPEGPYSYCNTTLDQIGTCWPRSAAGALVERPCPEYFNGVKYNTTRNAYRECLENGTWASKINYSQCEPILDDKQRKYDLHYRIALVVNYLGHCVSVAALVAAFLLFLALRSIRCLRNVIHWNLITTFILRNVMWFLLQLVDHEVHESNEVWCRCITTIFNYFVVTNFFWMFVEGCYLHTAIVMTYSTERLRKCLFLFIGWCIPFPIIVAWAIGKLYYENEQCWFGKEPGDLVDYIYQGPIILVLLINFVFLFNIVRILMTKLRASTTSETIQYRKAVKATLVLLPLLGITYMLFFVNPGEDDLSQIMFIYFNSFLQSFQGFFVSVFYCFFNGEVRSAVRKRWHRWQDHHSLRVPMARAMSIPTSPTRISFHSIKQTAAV
Assay: cell-based or functional assay

First: TKFTLSLDVPTNIMNLLFNIAKAKNLRAQAAANCHLMAQI (NES-PEG (about 20 kDa) on Cys 34; C-terminal amide) [Pegylated Cys-variant CRHR2 peptide agonist (NES linker, PEG about 20 kDa), SEQ ID NO: 88]
Second: TKFTLSLDVPTNIMNLLFNIAKAKNLRAQAAANACLMAQI (NES-PEG (about 20 kDa) on Cys 35; C-terminal amide) [Pegylated Cys-variant CRHR2 peptide agonist (NES linker, PEG about 20 kDa), SEQ ID NO: 89]
The “Log DR against h-SCP, cAMP” value of the first is higher: 1.55 log10 ratio for the first, 0.98 log10 ratio for the second.

Compared with TKFTLSLDVPTNIMNLLFNIAKAKNLRAQAAANAHLMAQC (NES-PEG (about 20 kDa) on Cys 40; C-terminal amide) [Pegylated Cys-variant CRHR2 peptide agonist (NES linker, PEG about 20 kDa), SEQ ID NO: 94], TKFTLSLDVPTNIMNLLFNIAKAKNLRCQAAANAHLMAQI (NES-PEG MW2000 on Cys 28; C-terminal amide) [Pegylated Cys-variant CRHR2 peptide agonist (NES-PEG MW2000), SEQ ID NO: 95] is lower in “Log DR against h-SCP, cAMP” value: over 2.39 log10 ratio for the first, 0.43 log10 ratio for the second.

Compared with TKFTLSLDVPTNIMNLLFNIAKAKNLRAQAAANAHLMCQI (NES-PEG (about 20 kDa) on Cys 38; C-terminal amide) [Pegylated Cys-variant CRHR2 peptide agonist (NES linker, PEG about 20 kDa), SEQ ID NO: 92], TKFTLSLDVPTNIMNLLFNIAKAKNLRAQAAANAHLMACI (NES-PEG (about 20 kDa) on Cys 39; C-terminal amide) [Pegylated Cys-variant CRHR2 peptide agonist (NES linker, PEG about 20 kDa), SEQ ID NO: 93] is lower in “Log DR against h-SCP, cAMP” value: 1.55 log10 ratio for the first, 1.47 log10 ratio for the second.

Compared with TKFTLSLDVPTNIMNLLFNIAKAKNLRAQAAANAHLCAQI (NES-PEG (about 20 kDa) on Cys 37; C-terminal amide) [Pegylated Cys-variant CRHR2 peptide agonist (NES linker, PEG about 20 kDa), SEQ ID NO: 91], TKFTLSLDVPTNIMNLLFNIAKAKNLRAQAAANACLMAQI-NH2 [Cys-variant CRHR2 peptide agonist, SEQ ID NO: 36] is lower in “Log DR against h-SCP, cAMP” value: over 3.43 log10 ratio for the first, 0.42 log10 ratio for the second.

First: TKFTLSLDVPTNIMNLLFNIAKAKNLRAQAAANAHLCAQI-NH2 [Cys-variant CRHR2 peptide agonist, SEQ ID NO: 38]
Second: TKFTLSLDVPTNIMNLLFNIAKAKNLRAQAAANAHLMAQC-NH2 [Cys-variant CRHR2 peptide agonist, SEQ ID NO: 41]
The “Log DR against h-SCP, cAMP” value of the first is higher: over 2.95 log10 ratio for the first, 2.07 log10 ratio for the second.

Compared with TKFTLSLDVPTNIMNLLFNIAKAKNLRAQAAANAHCMAQI-NH2 [Cys-variant CRHR2 peptide agonist, SEQ ID NO: 37], TKFTLSLDVPTNIMNLLFNIAKAKNLRAQAAANAHLMACI-NH2 [Cys-variant CRHR2 peptide agonist, SEQ ID NO: 40] is lower in “Log DR against h-SCP, cAMP” value: 1.05 log10 ratio for the first, 0.55 log10 ratio for the second.

With TKFTLSLDVPTNIMNLLFNIAKAKNLRAQAAANAHLMCQI-NH2 [Cys-variant CRHR2 peptide agonist, SEQ ID NO: 39] the “Log DR against h-SCP, cAMP” value was 0.41 log10 ratio.

Compared with TKFTLSLDVPTNIMNLLFNIAKAKNLRAQAAANCHLMAQI (NES-PEG (about 20 kDa) on Cys 34; C-terminal amide) [Pegylated Cys-variant CRHR2 peptide agonist (NES linker, PEG about 20 kDa), SEQ ID NO: 88], TKFTLSLDVPTNIMNLLFNIAKAKNLRAQAAANACLMAQI (NES-PEG (about 20 kDa) on Cys 35; C-terminal amide) [Pegylated Cys-variant CRHR2 peptide agonist (NES linker, PEG about 20 kDa), SEQ ID NO: 89] is higher in “pA50, cAMP” value: 8.12 -log M for the first, 8.48 -log M for the second.

Going from TKFTLSLDVPTNIMNLLFNIAKAKNLRAQAAANAHLMAQC (NES-PEG (about 20 kDa) on Cys 40; C-terminal amide) [Pegylated Cys-variant CRHR2 peptide agonist (NES linker, PEG about 20 kDa), SEQ ID NO: 94] to TKFTLSLDVPTNIMNLLFNIAKAKNLRCQAAANAHLMAQI (NES-PEG MW2000 on Cys 28; C-terminal amide) [Pegylated Cys-variant CRHR2 peptide agonist (NES-PEG MW2000), SEQ ID NO: 95], the “pA50, cAMP” value rises from ~7 -log M to 9.31 -log M.

Compared with TKFTLSLDVPTNIMNLLFNIAKAKNLRAQAAANAHLMCQI (NES-PEG (about 20 kDa) on Cys 38; C-terminal amide) [Pegylated Cys-variant CRHR2 peptide agonist (NES linker, PEG about 20 kDa), SEQ ID NO: 92], TKFTLSLDVPTNIMNLLFNIAKAKNLRAQAAANAHLMACI (NES-PEG (about 20 kDa) on Cys 39; C-terminal amide) [Pegylated Cys-variant CRHR2 peptide agonist (NES linker, PEG about 20 kDa), SEQ ID NO: 93] is higher in “pA50, cAMP” value: 8.12 -log M for the first, 8.2 -log M for the second.

Going from TKFTLSLDVPTNIMNLLFNIAKAKNLRAQAAANAHLCAQI (NES-PEG (about 20 kDa) on Cys 37; C-terminal amide) [Pegylated Cys-variant CRHR2 peptide agonist (NES linker, PEG about 20 kDa), SEQ ID NO: 91] to TKFTLSLDVPTNIMNLLFNIAKAKNLRAQAAANACLMAQI-NH2 [Cys-variant CRHR2 peptide agonist, SEQ ID NO: 36], the “pA50, cAMP” value rises from ~6.23 -log M to 9.1 -log M.

Going from TKFTLSLDVPTNIMNLLFNIAKAKNLRAQAAANAHLCAQI-NH2 [Cys-variant CRHR2 peptide agonist, SEQ ID NO: 38] to TKFTLSLDVPTNIMNLLFNIAKAKNLRAQAAANAHLMAQC-NH2 [Cys-variant CRHR2 peptide agonist, SEQ ID NO: 41], the “pA50, cAMP” value rises from ~6.67 -log M to 7.45 -log M.

Compared with TKFTLSLDVPTNIMNLLFNIAKAKNLRAQAAANAHCMAQI-NH2 [Cys-variant CRHR2 peptide agonist, SEQ ID NO: 37], TKFTLSLDVPTNIMNLLFNIAKAKNLRAQAAANAHLMACI-NH2 [Cys-variant CRHR2 peptide agonist, SEQ ID NO: 40] is higher in “pA50, cAMP” value: 8.58 -log M for the first, 9.08 -log M for the second.

For TKFTLSLDVPTNIMNLLFNIAKAKNLRAQAAANAHLMCQI-NH2 [Cys-variant CRHR2 peptide agonist, SEQ ID NO: 39], the “pA50, cAMP” value was 9.21 -log M.
